Test results as given in patent US20140050749A1 (PURDUE PHARMA L P, published 2014).
Where no end group is shown, it is not given here. [ ]: non-standard residue; d: D form. Gly(cPent) = N[C@H](C(=O)O)C1CCCC1

B1: E-[c5g]-AGIG-[amv]-LTV (peptide)
peptide: EXAGIGXLTV
modifications: [c5g] (aminocyclopentyl carboxylic acid) at position 2; [amv] at position 7 (abbreviation not defined in the filing)
notes: MART-1 decamer derivative with a double substitution

What follows are binders tested against T1, HLA-A2 (HLA-A0201) MHC class I complex (human) (assay: ITopia soluble class I plate-based stability assay, 37 C).
T1 construct: the methods section names HLA-A0201; also called HLA-A201; MHCI
Method: (§1) MHCI complexes were dissociated in each test well using stripping buffer, and the place-holder peptide and beta 2 microglobulin were washed away. 100 uM of the test peptide was added to appropriate wells along with additional beta 2 microglobulin and the anti-HLA ABC antibody, and the plates were incubated overnight at 21° C. Plates were washed, and fresh buffer was added to each well. Plates were shifted to 37° C., and the appropriate wells were read at 0, 0.5, 1, 1.5, 2, 4, 6 and 8 hours.
With I[Gly(cPent)]TFKNWPF (Survivin 19-27 derivative) [I-[cpg]-TFKNWPF] the “Half Life of Complex” value was 1.9 h. With K[Gly(cPent)]RRAIEQL (Survivin 130-138 derivative) [K-[cpg]-RRAIEQL] the “Half Life of Complex” value was 50.6 h. For AXGIGILTV ([cpg] (L-cyclopentylglycine) at position 2, MART-1 nonamer derivative) [A-[cpg]-GIGILTV], the “Half Life of Complex” value was over 100 h. For B1, the “Half Life of Complex” value was 11.9 h. KVRRAIEQL [Native Survivin 130-138 peptide KVRRAIEQL] was tested, and the “Half Life of Complex” value was 1.9 h. With ISTFKNWPF [Native Survivin 19-27 peptide ISTFKNWPF] the “Half Life of Complex” value was 0.24 h.

What follows are binders tested against T1, HLA-A2 (HLA-A0201) MHC class I complex (assay: ITopia soluble class I plate-based stability assay; reference is the native survivin peptide (SEQ ID NO: 31)).
Method: as §1
With K[Gly(cPent)]RRAIEQL (Survivin 130-138 derivative) [K-[cpg]-RRAIEQL] the “fold increase in the half life of the HLA-A2 peptide complex compared to the native survivin peptide” value was over 20 fold.
